Data: patent US20190218277A1 (Chugai, published 2019)

Experiments:
[1] = biological target: T1, Recombinant soluble E protein (0.8E-His) from DENV-2 (DENV-2, UniProt P14340 281-675); test: SPR, Biacore T200
T1 construct: also called DENV-2 E protein; DV2

[2] = biological target: T2, Recombinant soluble E protein (0.8E-His) from DENV-4 (DENV-4, UniProt P09866 280-674); test: SPR, Biacore T200
T2 construct: also called DENV-4 E protein; DV4

[3] = biological target: T3, Recombinant soluble E protein (0.8E-His) from DENV-3 (DENV-3, UniProt P27915 281-673)
T3 construct: also called DENV-3 E protein; DV3

[4] = biological target: T4, Recombinant soluble E protein (0.8E-His) from DENV-1 (DENV-1, UniProt P27909 281-675)
T4 construct: also called DENV-1 E protein; DV1

Row | Binder | binding result [1] | binding result [2] | Kd [3] [pM] | Kd [4] [pM]
1 | DG_3CH1000-SG1095/3CL012-SK1 (antibody, human IgG1, kappa, L234A L235A) heavy: QVQLVQSGPDVEKPGASVKVSCKASGYTFTSYYMHWVRQAPGQGLEWMGVINPRGGSRRSAQKFQGRITMTRDTSTSTVYMELSSLRSEDTAVYYCARGGRALFYDSYTTPFDGGSWWFDPWGQGSLVTVSSASTKGPSVFPLAPSSKSTSGGTAALGCLVKDYFPEPVTVSWNSGALTSGVHTFPAVLQSSGLYSLSSVVTVPSSSLGTQTYICNVNHKPSNTKVDKRVEPKSCDKTHTCPPCPAPEAAGGPSVFLFPPKPKDTLMISRTPEVTCVVVDVSHEDPEVKFNWYVDGVEVHNAKTKPREEQYNSTYRVVSVLTVLHQDWLNGKEYKCKVSNAALPAPISKTISKAKGQPREPQVYTLPPSREEMTKNQVSLTCLVKGFYPSDIAVEWESNGQPENNYKTTPPVLDSDGSFFLYSKLTVDKSRWQQGNVFSCSVMHEALHNHYTQKSLSLSP light: not shown | binds | binds | 0.959 | 1830
2 | DG_3CH1049-SG182/3CL012-SK1 (antibody, V domains shown) VH: QVQLVQSGAEVKKPGASVKVSCKASGYTFTSYYMHWVRQAPGQGLEWMGVINPRGGSRRSAQKFQGRVTMTRDTSTSTVYMELSSLRSEDTAVYYCARGGEALFYDSYTTPFDGGSWWFDPWGQGSLVTVSS VL: DIQLTQSPSSLSASVGDRVTFTCQASQDIRKYLNWYQQKPGKAPKLLIYDASNLKTGVPSRFSGSGSGTDFTFTISSLQPEDVATYYCQQFEDLPITFGQGTRLQIKR | binds | binds | 1.05 | 2260
3 | DG_3CH1049-SG182/3CL-SK1 (antibody, V domains shown) VH: QVQLVQSGAEVKKPGASVKVSCKASGYTFTSYYMHWVRQAPGQGLEWMGVINPRGGSRRSAQKFQGRVTMTRDTSTSTVYMELSSLRSEDTAVYYCARGGEALFYDSYTTPFDGGSWWFDPWGQGSLVTVSS VL: DIQLTQSPSSLSASVGDRVTFTCQASQDIRKYLNWYQQKPGKAPKLLIYDASNLKTGVPSRFSGSGSGTDFTFTISSLQPEDVATYYCQQFDDLPITFGQGTRLQIKR | binds | binds | 2.39 | 2140
4 | DG_3CH1046-SG182/3CL633-SK1 (antibody, V domains shown) VH: QVQLVQSGAEVKKPGASVKVSCKASGYTFTSYYMHWVRQAPGQGLEWMGVINPRGGSRRSAQKFQGRVTMTRDTSTSTVYMELSSLRSEDTAVYYCARGGRALFYDSYTTPFDGGSWWFDPWGQGSLVTVSS VL: DIQLTQSPSSLSASVGDRVTITCQASQDIRKYLNWYQQKPGKAPKLLIYDASNLKTGVPSRFSGSGSGTDFTLTISSLQPEDVATYYCQQFDDLPITFGQGTRLQIKR | binds | binds | 0.201 | 1640
5 | DG_3CH1047-SG1095/3CL012-SK1 (antibody, human IgG1, kappa, L234A L235A) heavy: QVQLVQSGPDVEKPGASVKVSCKASGYTFTSYYMHWVRQAPGQGLEWMGVINPRGGSRRSAQKFQGRITMTRDTSTSTVYMELSSLRSEDTAVYYCARGGEALFYDSYTTPFDGGSWWFDPWGQGSLVTVSSASTKGPSVFPLAPSSKSTSGGTAALGCLVKDYFPEPVTVSWNSGALTSGVHTFPAVLQSSGLYSLSSVVTVPSSSLGTQTYICNVNHKPSNTKVDKRVEPKSCDKTHTCPPCPAPEAAGGPSVFLFPPKPKDTLMISRTPEVTCVVVDVSHEDPEVKFNWYVDGVEVHNAKTKPREEQYNSTYRVVSVLTVLHQDWLNGKEYKCKVSNAALPAPISKTISKAKGQPREPQVYTLPPSREEMTKNQVSLTCLVKGFYPSDIAVEWESNGQPENNYKTTPPVLDSDGSFFLYSKLTVDKSRWQQGNVFSCSVMHEALHNHYTQKSLSLSP light: not shown | binds | binds | 3.17 | 2210
6 | DG_3CH1047-SG1095/3CL119-SK1 (antibody) heavy: QVQLVQSGPDVEKPGASVKVSCKASGYTFTSYYMHWVRQAPGQGLEWMGVINPRGGSRRSAQKFQGRITMTRDTSTSTVYMELSSLRSEDTAVYYCARGGEALFYDSYTTPFDGGSWWFDPWGQGSLVTVSSASTKGPSVFPLAPSSKSTSGGTAALGCLVKDYFPEPVTVSWNSGALTSGVHTFPAVLQSSGLYSLSSVVTVPSSSLGTQTYICNVNHKPSNTKVDKRVEPKSCDKTHTCPPCPAPEAAGGPSVFLFPPKPKDTLMISRTPEVTCVVVDVSHEDPEVKFNWYVDGVEVHNAKTKPREEQYNSTYRVVSVLTVLHQDWLNGKEYKCKVSNAALPAPISKTISKAKGQPREPQVYTLPPSREEMTKNQVSLTCLVKGFYPSDIAVEWESNGQPENNYKTTPPVLDSDGSFFLYSKLTVDKSRWQQGNVFSCSVMHEALHNHYTQKSLSLSP light: not shown | binds | binds | 3.79 | 2230
7 | DG_3CH1047-SG182/3CL666-SK1 (antibody, V domains shown) VH: QVQLVQSGPDVEKPGASVKVSCKASGYTFTSYYMHWVRQAPGQGLEWMGVINPRGGSRRSAQKFQGRITMTRDTSTSTVYMELSSLRSEDTAVYYCARGGEALFYDSYTTPFDGGSWWFDPWGQGSLVTVSS VL: DIQLTQSPSSLSASVGDRVTITCQASQEIRKYLNWYQQKPGKAPKLLIYDASNLKTGVPSRFSGSGSGTDFTLTISSLQPEDVATYYCQQFDDLPITFGQGTRLQIKR | binds | binds | 42 | 982
8 | DG_3CH1046-SG182/3CL-SK1 (antibody, V domains shown) VH: QVQLVQSGAEVKKPGASVKVSCKASGYTFTSYYMHWVRQAPGQGLEWMGVINPRGGSRRSAQKFQGRVTMTRDTSTSTVYMELSSLRSEDTAVYYCARGGRALFYDSYTTPFDGGSWWFDPWGQGSLVTVSS VL: DIQLTQSPSSLSASVGDRVTFTCQASQDIRKYLNWYQQKPGKAPKLLIYDASNLKTGVPSRFSGSGSGTDFTFTISSLQPEDVATYYCQQFDDLPITFGQGTRLQIKR | binds | binds | 0.213 | 1910
9 | DG_3CH1049-SG182/3CL119-SK1 (antibody, V domains shown) VH: QVQLVQSGAEVKKPGASVKVSCKASGYTFTSYYMHWVRQAPGQGLEWMGVINPRGGSRRSAQKFQGRVTMTRDTSTSTVYMELSSLRSEDTAVYYCARGGEALFYDSYTTPFDGGSWWFDPWGQGSLVTVSS VL: DIQLTQSPSSLSASVGDRVTFTCQASQEIRKYLNWYQQKPGKAPKLLIYDASNLKTGVPSRFSGSGSGTDFTFTISSLQPEDVATYYCQQFDDLPITFGQGTRLQIKR | binds | binds | 5.09 | 1720
10 | DG_3CH1000-SG1095/3CL-SK1 (antibody, human IgG1, kappa, L234A L235A) heavy: QVQLVQSGPDVEKPGASVKVSCKASGYTFTSYYMHWVRQAPGQGLEWMGVINPRGGSRRSAQKFQGRITMTRDTSTSTVYMELSSLRSEDTAVYYCARGGRALFYDSYTTPFDGGSWWFDPWGQGSLVTVSSASTKGPSVFPLAPSSKSTSGGTAALGCLVKDYFPEPVTVSWNSGALTSGVHTFPAVLQSSGLYSLSSVVTVPSSSLGTQTYICNVNHKPSNTKVDKRVEPKSCDKTHTCPPCPAPEAAGGPSVFLFPPKPKDTLMISRTPEVTCVVVDVSHEDPEVKFNWYVDGVEVHNAKTKPREEQYNSTYRVVSVLTVLHQDWLNGKEYKCKVSNAALPAPISKTISKAKGQPREPQVYTLPPSREEMTKNQVSLTCLVKGFYPSDIAVEWESNGQPENNYKTTPPVLDSDGSFFLYSKLTVDKSRWQQGNVFSCSVMHEALHNHYTQKSLSLSP light: not shown | binds | binds | 16.8 | 1800
11 | DG_3CH1046-SG182/3CL012-SK1 (antibody, V domains shown) VH: QVQLVQSGAEVKKPGASVKVSCKASGYTFTSYYMHWVRQAPGQGLEWMGVINPRGGSRRSAQKFQGRVTMTRDTSTSTVYMELSSLRSEDTAVYYCARGGRALFYDSYTTPFDGGSWWFDPWGQGSLVTVSS VL: DIQLTQSPSSLSASVGDRVTFTCQASQDIRKYLNWYQQKPGKAPKLLIYDASNLKTGVPSRFSGSGSGTDFTFTISSLQPEDVATYYCQQFEDLPITFGQGTRLQIKR | binds | binds | 0.145 | 1920
12 | DG_3CH1046-SG182/3CL119-SK1 (antibody, V domains shown) VH: QVQLVQSGAEVKKPGASVKVSCKASGYTFTSYYMHWVRQAPGQGLEWMGVINPRGGSRRSAQKFQGRVTMTRDTSTSTVYMELSSLRSEDTAVYYCARGGRALFYDSYTTPFDGGSWWFDPWGQGSLVTVSS VL: DIQLTQSPSSLSASVGDRVTFTCQASQEIRKYLNWYQQKPGKAPKLLIYDASNLKTGVPSRFSGSGSGTDFTFTISSLQPEDVATYYCQQFDDLPITFGQGTRLQIKR | binds | binds | 2.73 | 1530
13 | DG_3CH1000-SG1095/3CL119-SK1 (antibody) heavy: QVQLVQSGPDVEKPGASVKVSCKASGYTFTSYYMHWVRQAPGQGLEWMGVINPRGGSRRSAQKFQGRITMTRDTSTSTVYMELSSLRSEDTAVYYCARGGRALFYDSYTTPFDGGSWWFDPWGQGSLVTVSSASTKGPSVFPLAPSSKSTSGGTAALGCLVKDYFPEPVTVSWNSGALTSGVHTFPAVLQSSGLYSLSSVVTVPSSSLGTQTYICNVNHKPSNTKVDKRVEPKSCDKTHTCPPCPAPEAAGGPSVFLFPPKPKDTLMISRTPEVTCVVVDVSHEDPEVKFNWYVDGVEVHNAKTKPREEQYNSTYRVVSVLTVLHQDWLNGKEYKCKVSNAALPAPISKTISKAKGQPREPQVYTLPPSREEMTKNQVSLTCLVKGFYPSDIAVEWESNGQPENNYKTTPPVLDSDGSFFLYSKLTVDKSRWQQGNVFSCSVMHEALHNHYTQKSLSLSP light: not shown | binds | binds | 0.0428 | 1920
14 | DG_3CH1047-SG182/3CL633-SK1 (antibody, V domains shown) VH: QVQLVQSGPDVEKPGASVKVSCKASGYTFTSYYMHWVRQAPGQGLEWMGVINPRGGSRRSAQKFQGRITMTRDTSTSTVYMELSSLRSEDTAVYYCARGGEALFYDSYTTPFDGGSWWFDPWGQGSLVTVSS VL: DIQLTQSPSSLSASVGDRVTITCQASQDIRKYLNWYQQKPGKAPKLLIYDASNLKTGVPSRFSGSGSGTDFTLTISSLQPEDVATYYCQQFDDLPITFGQGTRLQIKR | binds | binds | 0.437 | 956
